Key:
[1] = tested on: O=[N+]([O-])c1ccc(OP(=O)(O)Oc2ccc([N+](=O)[O-])cc2)cc1; assay: purified protein; assay type: biochemical, Shigella flexneri; conditions: standard assay: 50 mM HEPES pH 7.5, 2 mM MnCl2
[2] = tested on: O=[N+]([O-])c1ccc(OP(=O)(O)Oc2ccc([N+](=O)[O-])cc2)cc1; assay: purified protein; assay type: biochemical, Thiobacillus denitrificans; conditions: standard assay: 50 mM HEPES pH 7.5, 2 mM MnCl2

Substance	Km [1]	Vmax [1]	kcat [1]	kcat/Km [1]	Km [2]	Vmax [2]	kcat [2]	kcat/Km [2]
SFV_3559 EAL domain (YhjK) (Shigella flexneri)	14.1 ± 4.2 mM	2.1 µmol/min/mg	8 s⁻¹	600 M⁻¹ s⁻¹				
TBD1265 EAL domain (Thiobacillus denitrificans ATCC 25259)					20.0 ± 1.3 mM	0.1 µmol/min/mg	0.06 s⁻¹	3 M⁻¹ s⁻¹

Reference: article PMC2945410
